From the supplement of paper PMC9112550, “Optimization of the antimicrobial peptide Bac7 by deep mutational scanning” (BMC Biology, 2022) come the findings set out here.

This data set deals with Escherichia coli TOP10. Kind of data set: shrunken log2 fold change of peptide-encoding DNA abundance (4.5 h post-induction vs induction); higher = less antimicrobial activity (less host growth inhibition). As to conditions: time post-induction: 4.5 h; library: site-saturation at positions 5, 18, 19, 20.
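Further: peptides expressed intracellularly from a pBAD plasmid library in pooled LB shake-flask culture, induced with 0.3% L-arabinose, DNA abundance read by NGS, three biological replicates, DESeq2 with apeglm shrinkage.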

Consider RRIRFRPPRLPRPRPRPQDDPRP, for which the “shrunken log2 fold change” value was -0.493.
RRIRERPPRLPRPRPRPTFQPRP: the “shrunken log2 fold change” value is -0.103.
For the sequence RRIRRRPPRLPRPRPRPFDAPRP, the “shrunken log2 fold change” value came out at 0.44.
With RRIRCRPPRLPRPRPRPVRRPRP the figure was 1.1; with RRIRIRPPRLPRPRPRPQTNPRP, -0.423; with RRIRHRPPRLPRPRPRPLDQPRP, -0.116.
As for RRIRYRPPRLPRPRPRPDVQPRP, the “shrunken log2 fold change” value was -0.0317.
With RRIRNRPPRLPRPRPRPCKSPRP the figure was -0.0291.
As for RRIRQRPPRLPRPRPRPYWCPRP, the “shrunken log2 fold change” value is -0.164.
Turning to RRIRPRPPRLPRPRPRPWDVPRP, the “shrunken log2 fold change” value was 0.308.
RRIRQRPPRLPRPRPRPSINPRP: the “shrunken log2 fold change” value is -0.806.
For the sequence RRIRDRPPRLPRPRPRPFAPPRP, the “shrunken log2 fold change” value turned out to be 0.318.
With RRIRLRPPRLPRPRPRPEAYPRP the figure was 0.0406; with RRIRRRPPRLPRPRPRPFDKPRP, 0.0721.
On to RRIRFRPPRLPRPRPRPWVHPRP, for which the “shrunken log2 fold change” value turned out to be 0.0589.
For RRIRKRPPRLPRPRPRPVVFPRP, the “shrunken log2 fold change” value was -0.0936.
For RRIRCRPPRLPRPRPRPQMWPRP, the “shrunken log2 fold change” value is 0.0606.
With RRIRIRPPRLPRPRPRPAWGPRP, the “shrunken log2 fold change” value amounted to 0.0665.
As to RRIRWRPPRLPRPRPRPHSCPRP, the “shrunken log2 fold change” value was -0.0379.
Consider RRIRDRPPRLPRPRPRPACMPRP, for which the “shrunken log2 fold change” value was determined as 0.242.
As for RRIRIRPPRLPRPRPRPDMNPRP, the “shrunken log2 fold change” value was -0.146.
Consider RRIRNRPPRLPRPRPRPHCRPRP, for which the “shrunken log2 fold change” value was 0.00914.
For the sequence RRIRWRPPRLPRPRPRPTKWPRP, the “shrunken log2 fold change” value was -0.126.
Regarding RRIRPRPPRLPRPRPRPMWWPRP, the “shrunken log2 fold change” value came out at 0.189.
For RRIRFRPPRLPRPRPRPYIHPRP, the “shrunken log2 fold change” value is -0.932.
With RRIRSRPPRLPRPRPRPLLRPRP the figure was -0.107.
In the case of RRIRNRPPRLPRPRPRPPPFPRP, the “shrunken log2 fold change” value came out at 0.47.
In the case of RRIRSRPPRLPRPRPRPVGMPRP, the “shrunken log2 fold change” value came to 0.12.
In the case of RRIRTRPPRLPRPRPRPIIFPRP, the “shrunken log2 fold change” value is -0.0206.
With RRIRIRPPRLPRPRPRPIHGPRP the figure was -0.0135; with RRIRSRPPRLPRPRPRPVNRPRP, -0.107.
With RRIRYRPPRLPRPRPRPQNCPRP the figure was -0.0075.
As to RRIRWRPPRLPRPRPRPNRFPRP, the “shrunken log2 fold change” value was -0.0274.
Turning to RRIRLRPPRLPRPRPRPGMMPRP, the “shrunken log2 fold change” value was 0.0343.
With RRIRPRPPRLPRPRPRPVHSPRP, the “shrunken log2 fold change” value came to 0.127.
Take RRIRKRPPRLPRPRPRPSNIPRP: the “shrunken log2 fold change” value was -0.306.
With RRIRIRPPRLPRPRPRPDCDPRP the figure was -0.242.
For the sequence RRIRWRPPRLPRPRPRPSVKPRP, the “shrunken log2 fold change” value was -0.159.
RRIRWRPPRLPRPRPRPYIVPRP: the “shrunken log2 fold change” value is -0.727.
With RRIRMRPPRLPRPRPRPYAIPRP the figure was -0.0168.
RRIRGRPPRLPRPRPRPWLAPRP: the “shrunken log2 fold change” value worked out at 0.0824.
Regarding RRIRNRPPRLPRPRPRPKFMPRP, the “shrunken log2 fold change” value was -0.0904.
Turning to RRIRERPPRLPRPRPRPDRSPRP, the “shrunken log2 fold change” value is -0.0225.
On to RRIRDRPPRLPRPRPRPLNGPRP, for which the “shrunken log2 fold change” value was -0.00962.
Regarding RRIRQRPPRLPRPRPRPKDEPRP, the “shrunken log2 fold change” value is 0.0571.
With RRIRDRPPRLPRPRPRPRGKPRP the figure was -0.0455; with RRIRKRPPRLPRPRPRPEAHPRP, 0.151.
For RRIRKRPPRLPRPRPRPSQQPRP, the “shrunken log2 fold change” value stood at 0.312.
In the case of RRIRMRPPRLPRPRPRPKTMPRP, the “shrunken log2 fold change” value is -0.0578.
RRIRFRPPRLPRPRPRPFDYPRP: the “shrunken log2 fold change” value is -0.111.
With RRIRTRPPRLPRPRPRPKKLPRP the figure was -0.298; with RRIRCRPPRLPRPRPRPVGDPRP, 0.551; with RRIRQRPPRLPRPRPRPVLWPRP, 0.193.
As for RRIRARPPRLPRPRPRPLYDPRP, the “shrunken log2 fold change” value was -0.124.
For the sequence RRIRGRPPRLPRPRPRPVYEPRP, the “shrunken log2 fold change” value was determined as 0.271.
With RRIRFRPPRLPRPRPRPDEWPRP the figure was 0.0983.
In the case of RRIRGRPPRLPRPRPRPVQWPRP, the “shrunken log2 fold change” value came to 0.171.
For RRIRCRPPRLPRPRPRPVMQPRP, the “shrunken log2 fold change” value was -0.166.
RRIRARPPRLPRPRPRPNCGPRP: the “shrunken log2 fold change” value came to 0.281.
For the sequence RRIRHRPPRLPRPRPRPSDKPRP, the “shrunken log2 fold change” value was -0.355.
On to RRIRLRPPRLPRPRPRPTHFPRP, for which the “shrunken log2 fold change” value worked out at 0.362.
For the sequence RRIRTRPPRLPRPRPRPPCLPRP, the “shrunken log2 fold change” value is -0.0659.
Take RRIRQRPPRLPRPRPRPEADPRP: the “shrunken log2 fold change” value was found to be 0.138.
In the case of RRIRTRPPRLPRPRPRPNQYPRP, the “shrunken log2 fold change” value was -0.446.
With RRIRSRPPRLPRPRPRPYMYPRP the figure was -0.466.
For the sequence RRIRWRPPRLPRPRPRPIALPRP, the “shrunken log2 fold change” value came to 0.0387.
With RRIRCRPPRLPRPRPRPKWRPRP, the “shrunken log2 fold change” value turned out to be 0.422.
Regarding RRIRARPPRLPRPRPRPYNIPRP, the “shrunken log2 fold change” value was -0.159.
RRIRNRPPRLPRPRPRPPLLPRP: the “shrunken log2 fold change” value was found to be 0.125.
For the sequence RRIRYRPPRLPRPRPRPKSCPRP, the “shrunken log2 fold change” value is -0.0262.
RRIRSRPPRLPRPRPRPMAMPRP: the “shrunken log2 fold change” value amounted to 0.0808.
Consider RRIRMRPPRLPRPRPRPCKNPRP, for which the “shrunken log2 fold change” value was found to be 4.11.
For the sequence RRIRCRPPRLPRPRPRPRWCPRP, the “shrunken log2 fold change” value is -0.131.
As to RRIRWRPPRLPRPRPRPTCDPRP, the “shrunken log2 fold change” value was found to be 0.388.
For the sequence RRIRERPPRLPRPRPRPFFQPRP, the “shrunken log2 fold change” value is -0.173.
As for RRIRVRPPRLPRPRPRPCQTPRP, the “shrunken log2 fold change” value was -0.03.
Take RRIRDRPPRLPRPRPRPSQEPRP: the “shrunken log2 fold change” value came out at 0.111.
Turning to RRIRGRPPRLPRPRPRPSEHPRP, the “shrunken log2 fold change” value was 0.149.
Regarding RRIRRRPPRLPRPRPRPIVRPRP, the “shrunken log2 fold change” value was 0.117.
In the case of RRIRLRPPRLPRPRPRPAGLPRP, the “shrunken log2 fold change” value turned out to be 0.102.
As to RRIRIRPPRLPRPRPRPDQTPRP, the “shrunken log2 fold change” value was determined as 0.000407.
For RRIRVRPPRLPRPRPRPFQFPRP, the “shrunken log2 fold change” value is -0.171.
Turning to RRIRPRPPRLPRPRPRPCMMPRP, the “shrunken log2 fold change” value was -0.467.
With RRIRNRPPRLPRPRPRPPITPRP the figure was 0.187; with RRIRDRPPRLPRPRPRPEPSPRP, 0.885; with RRIRSRPPRLPRPRPRPTQKPRP, 0.375.
For the sequence RRIRCRPPRLPRPRPRPWSEPRP, the “shrunken log2 fold change” value was -0.0285.
RRIRKRPPRLPRPRPRPYKSPRP: the “shrunken log2 fold change” value is -0.243.
On to RRIRHRPPRLPRPRPRPSVFPRP, for which the “shrunken log2 fold change” value is -0.424.
With RRIRLRPPRLPRPRPRPAFQPRP the figure was 0.108.
RRIRMRPPRLPRPRPRPMNVPRP: the “shrunken log2 fold change” value was -0.147.
For the sequence RRIRHRPPRLPRPRPRPPAWPRP, the “shrunken log2 fold change” value is 0.0414.
On to RRIRTRPPRLPRPRPRPVWMPRP, for which the “shrunken log2 fold change” value is -0.0336.
On to RRIRGRPPRLPRPRPRPIYYPRP, for which the “shrunken log2 fold change” value was -0.197.
RRIRGRPPRLPRPRPRPIPFPRP: the “shrunken log2 fold change” value amounted to 0.266.
Turning to RRIRCRPPRLPRPRPRPVCPPRP, the “shrunken log2 fold change” value came to 0.0356.
Turning to RRIRQRPPRLPRPRPRPACPPRP, the “shrunken log2 fold change” value is 0.0154.
Consider RRIRIRPPRLPRPRPRPHLRPRP, for which the “shrunken log2 fold change” value was -0.00802.
For RRIRDRPPRLPRPRPRPLVAPRP, the “shrunken log2 fold change” value was 0.912.
With RRIRARPPRLPRPRPRPNPDPRP the figure was 0.571; with RRIRWRPPRLPRPRPRPCVRPRP, 0.0233.
As to RRIRQRPPRLPRPRPRPRIVPRP, the “shrunken log2 fold change” value was 0.01.
As for RRIRGRPPRLPRPRPRPPFRPRP, the “shrunken log2 fold change” value worked out at 0.681.
Take RRIRRRPPRLPRPRPRPPFSPRP: the “shrunken log2 fold change” value worked out at 0.207.
Consider RRIRDRPPRLPRPRPRPSVSPRP, for which the “shrunken log2 fold change” value worked out at 0.0104.
On to RRIRPRPPRLPRPRPRPPFVPRP, for which the “shrunken log2 fold change” value is 0.139.
Regarding RRIRFRPPRLPRPRPRPWPGPRP, the “shrunken log2 fold change” value was 0.112.
RRIRMRPPRLPRPRPRPELNPRP: the “shrunken log2 fold change” value amounted to 0.0722.
With RRIRPRPPRLPRPRPRPYWCPRP the figure was -0.272.
With RRIRPRPPRLPRPRPRPSVHPRP the figure was -0.289.
With RRIRSRPPRLPRPRPRPGHGPRP the figure was -0.254; with RRIRARPPRLPRPRPRPCMHPRP, -0.226.
Regarding RRIRGRPPRLPRPRPRPATWPRP, the “shrunken log2 fold change” value was determined as 0.565.
Turning to RRIRGRPPRLPRPRPRPVEPPRP, the “shrunken log2 fold change” value stood at 0.79.
For the sequence RRIRQRPPRLPRPRPRPGKRPRP, the “shrunken log2 fold change” value turned out to be 0.244.
On to RRIRCRPPRLPRPRPRPYYVPRP, for which the “shrunken log2 fold change” value is -0.519.
With RRIRRRPPRLPRPRPRPVCWPRP, the “shrunken log2 fold change” value amounted to 0.586.
For the sequence RRIRKRPPRLPRPRPRPTPTPRP, the “shrunken log2 fold change” value stood at 0.831.
Consider RRIRARPPRLPRPRPRPKCHPRP, for which the “shrunken log2 fold change” value turned out to be 0.161.
As for RRIRNRPPRLPRPRPRPIREPRP, the “shrunken log2 fold change” value was -0.0204.
With RRIRYRPPRLPRPRPRPRNIPRP the figure was -0.00665; with RRIRERPPRLPRPRPRPVVTPRP, -0.95; with RRIRTRPPRLPRPRPRPMIWPRP, -0.0322.
For RRIRIRPPRLPRPRPRPKWWPRP, the “shrunken log2 fold change” value turned out to be 0.188.
RRIRIRPPRLPRPRPRPPSGPRP: the “shrunken log2 fold change” value amounted to 0.537.
